Changes are numbered by the printed parent chain. Each block holds one binder with its values, some of them ahead of it.
Key:
[1] = target: T1, human coagulation factor XI (human, UniProt P03951 19-625); assay: ELISA on coated human FXI
T1 construct: Bought protein; also called FXI; fXI
Experimental: (§1) A standard ELISA format was used for analyzing the binding affinity of antibodies of this invention to FXI. Human FXI was obtained from Haematologic Technologies Inc. (human FXI; Cat. No. HCXI-0150), baboon FXI was generated as described below. These antigens were coated to black 384 well Maxisorp microtitter plates (Nunc; Cat. No: 460518), diluted to a concentration of 1 μg/ml in 1× Coating Buffer (Candor Bioscience; Cat. No. 121125). Plates were incubated overnight at 4° C. After ovemight incubation, plates were washed 2× with 50 μl/well using Phosphate Buffered Saline (PBS, SigmaAldrich, Cat. No. D8662)+0.05% Tween 20 (SigmaAldrich, Cat. No. P9416). Following this, 50 μl/well of blocking buffer (Smart Block; Candor Bioscience; Cat. No. 113500) was added and the plates incubated for 1 hour at room temperature. Afterwards, plates were washed for 3× using 50 μl/well of a PBS+0.05% Tween 20 buffer. Antibodies of this invention were added at different concentrations in a final volume of 30 μl/well. Plates were incubated for 1 hour at room temperature. Following this incubation step, plates were washed for 3× using 50 μl/well of a PBS+0.05% Tween 20 buffer. For the detection of bound candidate antibodies, the anti-h-Fc-POD antibody (Sigma; Cat. No. A0170) was diluted by the factor of 1:10000 in 10% Blocking Buffer. […]

[2] = target: T1, human coagulation factor XI; assay: competitive ELISA on coated FXI, competitor biotinylated 1A6
[3] = target: T1, human coagulation factor XI; assay: ELISA on coated human FXI, anti-h-Fc-POD detection
Experimental: as §1

binding result [1]: binds
B1: humanized and germlined anti-FXI antibody TPP-3290 (antibody, human IgG1, kappa, V domains shown)
VH: EVTLRESGPALVKPTQTLTLTCTFSGFSLSTSGMGVSWIRQPPGKALEWLAHIDWDDDKYYSTSLKSRLTISKDTSKNQVVLTMTNMDPVDTATYYCARIRSSVYAHYYGMDYWGQGTTVTVSS
VL: DIVMTQSPDSLAVSLGERATISCKASQSVLYSGDNYLNWYQQKPGQPPKLLIYAASTLESGIPDRFSGSGSGTDFTLTISSLQAEDVAVYYCQQYNGTPWTFGGGTKVEIKR
notes: IgG expressed in HEK293-6E cells; also called TTP3290

binding result [2]: binds
B2: humanized and germlined anti-FXI antibody TPP-3583 (antibody, human IgG1, kappa, V domains shown)
VH: B1 VH with S37G, T63P
VL: B1 VL with T98D
notes: also called TTP-3583

binding result [3]: binds
B3: humanized and germlined anti-FXI antibody TPP-3238 (antibody, human IgG1, kappa, V domains shown)
VH: B1 VH with A106Y, H107Y, Y113V
VL: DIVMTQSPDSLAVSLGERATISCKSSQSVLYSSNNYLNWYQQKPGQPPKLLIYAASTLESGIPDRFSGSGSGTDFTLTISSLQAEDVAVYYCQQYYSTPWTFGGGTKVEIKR
notes: IgG expressed in HEK293-6E cells

— US20190225705A1 (Bayer, published 2019)
